# From the DeepSol protein solubility set
# Assay: soluble on expression in E. coli; label from the status in PepcDB or PDB records
row,Sequence,soluble on expression in E. coli
1,MKISTKGRYGLTIMIELAKKYGDRPISLRSIAKANNLSEHYLEQLVTPLRNAGLVKSIRGAYGGYVLAEHPAKITAGDILRVLEGPLTPVEELEEEEPAKRELWIRIRDAVEEVLDSTTLEDLAKYSDGDEGAYMFYI,not soluble
2,MSETIFGKILTGEIPSFKVYEDDYVYAFLDISQVTKGHTLLIPKKASANIFETDEETMKHIGAALPKVANAIKRAFNPDGLNIIQNNGEFADQSVFHIHFHLIPRYENDIDGFGYKWETHEDILDNDAKQQIAEQIQAQF,not soluble
3,MGSDKIHHHHHHVTITNPLPIDRNGEMVEISMAEITGKLQLPDTAQVIVLDENGLEVPYQITYDDMLIFPASVKGDASAVYTIAEGTPQPVDVVACGRQYPERLDDVAWENDRAAYRAYGPALQEKGERAFGYDIWTKSVSEPVVEDRYDGDLNRGISYHVDHGNGMDCYAVGPTLGGGTAALFPDSTIVYPYCYKDCEILDNGPLRFTAKLVYNPLVVKGDSSVIETRIISLDKGSQLNKTVVSFDNLQEITPVVTGIVLHKQNPMGYSFDADAGYIAYADSTENAANNNGVIYIGAVFPATVKGAFAQVFSEKERKERGDALGHVLAVNDYEPGAEYIYYWGSGWSKYGFEADTDWNKYLEEYARKIRNPLAVAIK,not soluble
4,MGSDKIHHHHHHMKGIDVSSYQGTIAWGKVKWAGVQFAILKIIRKDLNPDKTFEQNWQGCTEAGMPIQGVYNYSYATTTEKAKTDAKRVIEVLAGRKTFVWLDVEDRCQQGLGQTLIDIINTYQSEIKTAGLEFGVYTGLSFYNTYILPYANQINCPFWIARYPSTKGMTIGDDPNDAKKPAIAHSLYGWQYTSAFTCSGLNNSTDANLLYVELGTKDTTAASQPVSAPVKPNNESWKGDIDYYLESEEVRKWQHAMNVGFDLKGADALKEDGKFGADSQAFAKSHNLWNGQKHYCPTAIKWLRRTLHDVYSFTKLDTDYKEWSDYLSKCVMVFQKNRGLTQDARVGLLTTYRLLKG,not soluble
5,MPPKQQLSKAAKAAAALAGGKKSKKKWSKKSMKDRAQHAVILDQEKYDRILKEVPTYRYVSVSVLVDRLKIGGSLARIALRHLEKEGIIKPISKHSKQAIYTRATASE,soluble
6,MAHHHHHHMEKKKKESTIKISLNINTKFNESYLDEQNDIINEALIKNNNKEIIHSLNLIENIRQGTFDYKDLREVYFMNDNDLFSMLNDKKASEEKGKGKEDAHNNNNIDNKICNNDKVGDKNKKLSNNNNNNGNDLNIQIEGDQNYNFNKNNETNIFVLDNDVDKVCIIRFPFSVSKDIKKYLLNKNLDMVIQPTTLLNSRFFLIHFKNINKKFHGILLELSTHIEIHKTLDRNNLYKSNDVSQMIYVYEHNTNSKELLKKFINNNFELCGGISKKLNHFIFQNHTKLFKYHDIYFAEKLIYEYLNTPYYDYFDLYVKTLNEMHNHIIMEKENNNKQNEIVDETTDLAAILGSLDNSYNIMNLIEKQDGDIDFEALLNYDIEKENYESDVSDLLLGGTYYLQKK,not soluble
7,VNQQQLQQLMDMGFTREHAMEALLNTSTMEQATEYLLTHP,soluble
8,MSECSASTSQLSTFCVNEIPWKLVPQTCDEFSEYEFIDEKYRRLSDVESFVWKWSPCGRYGIDLPGGRDVINQQLRDRMAVFDLHTNKWTLYTMDRGAFEIPRVCFLYWARNDIIGTITLVKDYEAGPDDEIPLKFKQSFFYVSHETQTLVYSGSCKYRTNKTIVASYWYHIFENRRGEPFIDHNNYLWLVFSNGVDSLILLPFIPTSTCFKAKCVSFDMNDIVSQFTGIRVFLDPFVSSHYVPWVYRNDVNFFIRIDSHSFIEEQNRDYGLDPQIDNPETKPHRGVFQLRVNLKDVIEKGEKDAIHAVNPETIETRFNRGDIELWRKISDELRQEHQSIAQHGKMVVVQRWSHFTVDMGLSKKMRTRVADLDARDYCCSHKPRNSSFCCIDLDSERIKAVDALILGTDVVLPHPSGSVFLFRYKENYGMSYCELPFFQPLSLKLKCIQVLKESVEIDPSYYRIKCCLKMQEELEKETAENLCTINIQQ,not soluble
9,MRHLSLLLCCLLAWPARAETLVEIPTRPGVALRFLLLEPPGPPRANLILLAGGEGLLKLSAEGELGAGRGNFLVRTRQGWADMGFRVAVVDAPSDMPRGLLGDFRERAEHAADIAAVSDYLRRGAALPVWLAGTSRGTTSAAAVALNRPDAADGLLLTSSIDAGRGSLAGLPLERLAVPVLMIQHRRDECRASRPGNLGPVLDRLRADAPRELMLLDGGGSEGDPCQPWAWHGYNGIERRVLGLAGAWMLAHGRHLEHHHHHH,not soluble
10,MRVSKSKKPTEICPIVSAIAIIGSEPKLLTIRYLLDGPKRFNELQRLTSLSSKTLSKTLKELENHGIVERKIINSHPIVAVYELTDKGKDLKRVFDELRRWGEKFALTKIAVMNSIRVNQEF,soluble
11,ETDETLGEREIRRVLARSGEEGNIDASEVDMIERVFDLDDTVVREVMVPRPDVVSVPADATMSDIRAVVLDEGHTRYPVVDADDSDQIVGFIDVKDVLRAGEEGNENTTAGDIAHEIPVVPETTAINDLLLQFRQDRRQMAAVIDEWGSLEGIATIEDVVEAVVGDLRDEFDVDGREHAIRKQSDGSYDADGGV,not soluble
12,MGSDKIHHHHHHMGNRTRTIAGKDITRSVADALQYISYYHPPDYIRSLSQAYAREQSPAAKNAIGQILLNSRMAAFGRRPICQDTGLVVVFAKVGMETRIKSTISFADLVNEGVRQAYLDPDNPLRASIVADPLAGRVNTRDNTPAVVHVDLVQGNQIEITIAAKGGGSENKARFTTLNPSASVSDWVIDTVSTLGSGWCPPGLISVGIGGSAEKAMLLAKEAMNKPIDMSELIARGPSSAEEALRIELYERINALGIGAQGLGGLTTVVDVKVATYPTHAASKPVALIPQCAANRHLKFTLDGSGPIRVQPPDLCEWPDIGTDELSPAGVRRVNLDALTKEETASWRCGETLLLSGKMLTGRDAAHKRMVELIDAGKPLPFDLQGRVIYYVGPVRAVRDEVVGPAGPTTSSRLDDFTDKVLAETGLFAMVGKAERGRAAIESIVRHKTPYLIAVGGAAYLISKSIKSARLIAFEDLGMEAVYEFEVQDMPVIMAVDVDGNSIHNSGPLEWRKRMAADSIARNIGV,not soluble
13,MGSDKIHHHHHHMTFLRALLGATGQTLRAALAGLTVKPHSGHPVFPVTWVTPHIAAGPAPVSAAHLEALREQGIVAILNVCEELCTLADTEEAAGFEVRFLPIEDEGAPEPDALEEVLDWLDESVWRGRKVYVHCRWGVGRTGTVLHAYLLRRGLSPRRAEHFLSRLRSRPTSYTQWRSLRRFARRNPALTVREAAVEPGVADAMTPVLRDLARLVQEVERHVEAATPGISPEAFADAPRCGRDHVRCCATPPTLTLAEAAALTAAMDALLSSTQRDELRQKTSRGSGVPCPLLHDQRCLLYEARPLRCRTADMDETARLRLLEEVVADTLDDLDRRVFGLLAGCTPATSPPCFPIVEVLSGRYVATTFRHVACGLNTGKP,not soluble
14,MSLFLQPLLAKKIIAEVKKMYEREVIIVNTDGLIMAGTNDERVGQFHEGALICAKERRSVIITKEDETRLKGVKAGINLPVFFDHDVISVFGLTGEPAEIQPFGELLRKMTELFIKESRHLEQSQWRERMLESFMIDWLQLKEWSPSFLEKAQLLGVDLSSRRQMILIQGYEWSPHDIEQMARSWKSSYPADLFIRWGNERILINHEVPQHEQRDRLLRKILHICSFANTASSQYTAAGAGRAVASSSLTDSYEQAEKALAVSLKRKTPIFEEDLKLDMCLTEISPGTRNEFPQRVLGKALEHQELMNTIRTFFHHDLSLKQTAEDMHIHINTLRYRLAKAEQLTGLRFDRTEDVVTMYVALYFLDQDTKEGGSHHHHHH,soluble
15,SILEGGGVMNLNPGNNLLHQPPAWTDSYSTCNVSSGFFGGQWHEIHPQYWTKYQVWEWLQHLLDTNQLDANCIPFQEFDINGEHLCSMSLQEFTRAAGTAGQLLYSNLQHLKWNGQCSSDLFQSTHNVIVKTEQTEPSIMNTWKDENYLYDTNYGSTVDLLDSKTFCRAQISMTTTSHLPVAESPDMKKEQDPPAKCHTKKHNPRGTHLWEFIRDILLNPDKNPGLIKWEDRSEGVFRFLKSEAVAQLWGKKKNNSSMTYEKLSRAMRYYYKREILERVDGRRLVYKFGKNARGWRENEN,soluble
16,MQHSLGLIEVSGMSLAITVADVMAKTAQIRLIGVERTIGSGWMLVKIAGDVAAVRTALSAGEETARAHQGFVACTTIARPAKGTGELVSTTKPPRAEPVQKITVLPAVALTASAAHTTTGPESVQEDPDAEKAVPPIREAVEGSTGNIIQVDAINDPVETAREISKPNASAKSPPAEYGEKQSVATVKAFPVMGDIATDLDIPTASARSVAVAQQVKPGISLHQFHYQEKPDDETADAGSQQTGETKQAVAISAKLLVTCKICGDPSCPRHKGQPRSRCIHNQKSVLR,not soluble
17,MGSDKIHHHHHHMIHVGTCGFCEAREKYFKDFDAVEVQQTFYKVLQEKTLERWRKKAPEEFTFSIKAFQGVTHPSNSPTWRRSNVKPSKNVGLLRPTNEVLHYWRITLKEAKVLGARFILIQLPRSFKEGEESFENAEKFFNAIDRGDFEIGVELRGWSEKGVKRFVREFDVIDVTDPLLRIPLHKGSVNYYRLHGKYEGGKIIYNHSYSDEELKKIRERVLGWNVEESFVFFNNTSMCRDAKRFKLILDLH,not soluble
18,MPLPPDITFDSLALIKMHSQNMKRILEVTLAKFTVNLSIVTVYRYLTARAYLKKNIEAEFEILKDIYNIVPLLDDIAIKAAQIEANLIKKEITLDMEDIITATTAIYTNSLLVTDDPKRYEPIRRFGLDTMPLDKFIKEVELMVEKELI,soluble
19,LPHLMKYMGSKRELLDFIISSINDLDIESNWFCDLFSGTSVVGCSLKDEYNVQINDIQIYTSIFANTYLPNINKLINSTELEKIKDRVLFYVDEFYRKYPDLIFDYNSIDNYEKLTKLEIQQQNLIYSNFEIGFHLFVKYYSGTYWSYTQCVWIDSIRAVAEEYKGKSDYYIILSSLIYAMSYTSQSTGHFAQFRDVTESNMHDIMLYRIRDIWTYFEKKFLEILNMVDVEATNRYTITTLDYLDCLRLIERNTIVYADPPYSSVHYSRFYHAIETLIRYDYPNVKYKGRYREDRHQSPFGKKTEVKNAFGKLFKGVKNKNSHLILSYSDNGMITQDEIMEIGNSIMGNQYKGDIQVKEYIHSKMGRSDIHSMGVNELIISYKRQ,not soluble
20,MGSDKIHHHHHHMEKLKLMTIVGTRPEIIRLSSTIKACDQYFNQILVHTGQNYDYTLNQIFFDDLELRQPDHYLEAVGSNLGETMGNIIAKTYDVLLREQPDALLILGDTNSCLAAVSAKRLKIPVFHMEAGNRCFDQNVPEEINRKIVDHVSDVNLPYTEHSRRYLLDEGFNKANIFVTGSPMTEVIEAHRDKINHSDVLNKLGLAPAAYILVSAHREENIDNEKNFKSLMNAINDIAKKYKMPVIYSTHPRSWKKIEESKFEFDPLVKQLKPFGFFDYNALQKDAFVVLSDSGTLSEESSILKFPGVLIRTSTERPEVLDKGTVIVGGITYNNLIQSVELAREMQNNNEPMIDAIDYKDTNVSTKVVKIIQSYKDIINRNTWRK,not soluble
